Source: patent publication WO2018224439A1 (dated 2018)

B1: 23-13-A01-sc02 (scFv, V domains shown)
VH: EVQLVESGGGLVQPGGSLRLSCAASGFSFSSSYWICWVRQAPGKGLEWVGCVFTGDGTTYYASWAKGRFTISRDNSKNTVYLQMNSLRAEDTATYFCARPVSVYYYGMDLWGQGTLVTVSS
VL: DVVMTQSPSSLSASVGDRVTITCQASQIISSRSAWYQQKPGQPPKLLIYQASKLASGVPSRFSGSGSGTDFTLTISSLQPEDFATYYCQCTYIDSNFGAFGGGTKLTVLG
notes: Humanized scFv (STR graft); also called 23-13-A01-sc02 STR; 23-13-A01-SC02 STR
B2: 19-01-H04-sc02 (scFv, V domains shown)
VH: EVQLVESGGGLVQPGGSLRLSCAASGFSLSSNAMGWVRQAPGKGLEYIGIISVGGFTYYASWAKGRFTISRDNSKNTVYLQMNSLRAEDTATYFCARDRHGGDSSGAFYLWGQGTLVTVSS
VL: DIQMTQSPSSLSASVGDRVTITCQSSESVYSNNQLSWYQQKPGQPPKLLIYDASDLASGVPSRFSGSGSGTDFTLTISSLQPEDFATYYCAGGFSSSSDTAFGGGTKLTVLG
notes: Humanized scFv (STR graft); also called 19-01-H04-sc02 STR; 19-01-H04-SC02 STR

Experiments:
human serum albumin [1] = target: T1, human serum albumin (human, UniProt P02768 25-609); assay: SPR; sc02 against sc01
T1 construct: Coupled by amine chemistry to the SPR chip; also called HSA; human SA

human serum albumin [2] = target: T1, human serum albumin; assay: SPR; sc02 against sc01; this end fits human SA pH 5.5 in Table 3
cynomolgus serum albumin = target: T2, cynomolgus serum albumin (cynomolgus, UniProt A2V9Z4 25-608); assay: SPR; sc02 against sc01; this end fits cynomolgus SA pH 5.5 in Table 3
T2 construct: also called cynomolgus SA

Binder | fold improvement of affinity (STR graft over CDR graft) (human serum albumin [1]) [fold] | fold improvement of affinity (STR graft over CDR graft) (human serum albumin [2]) [fold] | fold improvement of affinity (STR graft over CDR graft) (cynomolgus serum albumin) [fold]
B1 | ~3 |  | 
B2 |  | 20 to 300 | 20 to 300
